Results taken from the supplement of paper PMC9170038.

Tests used:
MS2 coat protein [1] = assay: apparent KD of MS2 coat protein, switch ON state; designed switch direction (-1 OFF switch, 1 ON switch): -1; higher = weaker reporter binding; details: FMN input: 0 or 200 uM; Eterna round: R93 (includes R88 designs)
How it was run: (§1)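 Titrations with SNAP-549-labelled MS2 coat protein ran in twofold steps from 0.7 or 1.5 nM to 3 µM, each step taking 0.8–1.5 h at the start and 10–20 min toward the end. The targets were designed RNA switches transcribed on-chip from Illumina sequencing clusters, held in 100 mM Tris-HCl pH 7.5, 80 mM KCl, 4 mM MgCl2, without or with constant ligand. Apparent KD was taken per design as the median of normalised cluster binding-curve fits.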

MS2 coat protein [2] = assay: apparent KD of MS2 coat protein, switch OFF state (with FMN for OFF switches, without FMN for ON switches); designed switch direction (-1 OFF switch, 1 ON switch): -1; higher = weaker reporter binding; details: FMN input: 0 or 200 uM; Eterna round: R93 (includes R88 designs)
How it was run: as §1

Sequence	apparent KD of MS2 coat protein (MS2 coat protein [1])	apparent KD of MS2 coat protein (MS2 coat protein [2])
GAAAAGUCAGGAUAUGCGAAGGCGUCUGAUAGACGAGGCUAGCAGAAGGGACAUGAGGAUCACCCAUGUGGAAG [Mat - Exclusion 4 - Eli mod - D90]	0.0765 µM	0.157 µM
CUCUAGUCAGGAUAUUCAAGAAAAGAAAAGAAAGAAAAGAAGAAGAAGGGACAUGAGGAUCACCCAUGUAAGAA [EteRNA is fun!]	0.0467 µM	0.0465 µM
AAAACGGCAGGAUAUACGAUUUGGAACUAGACCGAGGAACCACAUGAGGAUCACCCAUGUAGAAGGGCCAAAAA [Ex2 Malc#16]	0.0172 µM	0.0197 µM
AUCAUCCUAGGAUAUACAUGGAUAUACAUUCAUGUGGACCUACAUGAGGAUCACCCAUGUAGAAGGAGGAUGAA [Mat - Same state - Mayanna Mod - D139]	0.0367 µM	0.0751 µM
UGCAGGUGAGGAUAUGCGGGCGAGCUAACAUAAGCAUCGAAGCAGAAGGCACAUGAGGAUCACCCAUGUAGUCC [Ex4_Neo]	0.021 µM	0.0272 µM
AAGAAGCAAGGAUAUACAUGAGGAUCACCCAUGUAAAAGAAAGAAAGGGAAAAGAAAAGUAGAAGGUGCAAGAA [Titkheperure Pasebakhenniut II]	0.0452 µM	0.057 µM
AAAUGACAUGAGGAUCACCCAUGUCAGGAUAUGACUUGAAAAUAAAAUAAAAAACAUGUCAGAAGGGACAUGGG [Design 50: Sub-opt F]	0.0203 µM	0.0155 µM
AAAAGGGCAGGAUAUACAUGAGGAUCACCCAUGUGAAAAAAAAAAAAAAAAAAAAAGUGUAGAAGGGUCAAAAA [Exclusion 3 - Omei 3]	0.0553 µM	0.0954 µM
CUCAUGUAAGGAUAUAUAUGAAAUGAAGUGAAAGAAAAGAAAUAGAAGGUACAUGAGGAUCACCCAUGUUAGAA [EteRNA is fun!]	0.0592 µM	0.0387 µM
AAGAAGUUAGGAUAUACAAGAAAGAAAGAAAAGAAAAGAAAACAUGAGGAUCACCCAUGUAGAAGGAACUAGAA [EteRNA is fun!]	0.0268 µM	0.0196 µM
AGCUAGUCAGGAUAUACGAGAAAGAAAGAAGAAGUGAAGGGACAUGAGGAUCACCCAUGUAGAAGGGACUAGCA [Diamond 27]	0.0519 µM	0.16 µM
GAAAAGCAAGGAUAUACAUGAGGAUCACCCAUGUAACCUGAAAGCAUGAUCGGUGACAGUAGAAGGUGCGAAAU [Tixegerice]	0.0223 µM	0.0569 µM
AAGAAACAUGAGGAUCACCCAUGUGAGGAUAUGAAAAAGAAAAGAAAAGAAAGAAGAAUCAGAAGGCACAAAGG [Nebkaure Khety II]	0.0221 µM	1.85 µM
AAACCACAUGAGGAUCACCCAUGUCAGGAUAUGAACGAAAUAAAAUAAAAAUAAAAGUUCAGAAGGGACAAAAA [Mat - Exclusion 1 - Eli mod - D16]	0.0374 µM	0.0487 µM
AAAAAACAUGAGGAUCACCCAUGUCAGGAUAUCCGAAAAAAAAAAAAAAAAAAACCUUGGAGAAGGGACAUUCC [Chica Displaced 6 - Jieux - Exclusion 1]	0.0372 µM	0.0344 µM
CCUAUGUCAGGAUAUCAGUAGUAAAAAAAAAAAAUUACUACUGAGAAGGGACAUGAGGAUCACCCAUGUCCCUU [EX4 309: Super Stable 9]	0.0153 µM	0.0143 µM
AAACCACAUGAGGAUCACCCAUGUCAGGAUAUGCACGAAAAUAAAUAAAAAUAAAAGUGCAGAAGGGACUAAAA [66%, Wbt, 14]	0.0319 µM	0.045 µM
AGUUGGCGAGGAUAUACAUGAGGAUCACCCAUGUGAGAGUAAAGAGUGAGAAAGAGAAGUAGAAGGCGCUGACA [Ruby 56]	0.0811 µM	0.18 µM
AAAAAGAGAGGAUAUACAUGAGGAUCACCCAUGUGAAAGACGAAAAAAAGUCAAAAAAGUAGAAGGCUCAAAAA [65%, Moding Exclusion3-cac2, 15]	0.0238 µM	0.0254 µM
AAAAAGGGAGGAUAUACGAAACAGGGAAACCUGAAAAGGAGACAUGAGGAUCACCCAUGUAGAAGGCCCAAGAA [Clint Eastwood 64% 4]	0.0253 µM	0.0533 µM
AAGAAGUGAGGAUAUGUCUGUGCGAAAAAAAAAAAGUGCAGACAGAAGGCACAUGAGGAUCACCCAUGUGAAAA [Florian 65% 4]	0.0219 µM	0.0267 µM
AACAGUACAGGAUAUACAUGAGGAUCACCCAUGUGGAAAUUAAGUGGCGUACCACAAAGUAGAAGGGUACUGGA [Moding Maslow revisited (73)]	0.0295 µM	0.1 µM
AAAAAGUCAGGAUAUACAAAAGUGCGAAAGCACAAAAGGAAACAUGAGGAUCACCCAUGUAGAAGGGACAAGAA [Married to this design]	0.0423 µM	0.0242 µM

Sequence	apparent KD of MS2 coat protein (MS2 coat protein [1])	apparent KD of MS2 coat protein (MS2 coat protein [2])
AAAAAGUGAGGAUAUACAUGAGGAUCACCCAUGUAAAAAAAAAAAAGGGUGGAAGAAAGUAGAAGGCACCAAAA [Ex 3 May 47]	0.0673 µM	0.0751 µM
AAAAAACAUGAGGAUCACCCAUGUGAGGAUAUGAUGCGAAUAAAGAAAGAAUAAAGCAUCAGAAGGCACAAAAA [Mat - Exclusion 1 - Eli mod - D62]	0.0364 µM	0.0496 µM
GGUUGCGUAGGAUAUACAUGAGGAUCACCCAUGUGAGAGAAAAAAGUGAGAAAGAAAAGUAGAAGGACGUGACG [salish99-ex3-125]	0.0297 µM	0.0579 µM
GAAAAGCAAGGAUAUACAUGAGGAUCACCCAUGUGGAAUGGCGUGACCUAAAGAAAAGGUAGAAGGUGCACGUG [Soangebi]	0.166 µM	0.341 µM
AAAAAGAGAGGAUAUGCAGGAGGUAAGGUCGAAAAAAAAAAACAUGAGGAUCACCCAUGUAGAAGGUUUAAAAA [Ecls2-VII]	0.0236 µM	0.0239 µM
AAGAAUCGAGGAUAUACAUGAGGAUCACCCAUGUAAAAGAAAGAAAAGGGAAAGAAAAGUAGAAGGCGAAAGAA [Userkhaure Setnakht]	0.0328 µM	0.0353 µM
AAAAAGGCAGGAUAUACAAAACAGGGAAACCUGAAAGGGAAACAUGAGGAUCACCCAUGUAGAAGGGCCAAGAA [Clint Eastwood 64% 1]	0.0373 µM	0.0954 µM
AAGAAACAUGAGGAUCACCCAUGUGAGGAUAUAGAAGAAAGAAAGAAAGAAAGAAGAACUAGAAGGCACAAAGG [Aemilius Rectus]	0.0331 µM	0.0353 µM
AUAGUACAUGAGGAUCACCCAUGUCAGGAUAUUCGAAACGAAAAAAAAAAAAAGUGAAGGAGAAGGGACUAUAA [EX1 Malc#10]	0.0175 µM	0.0211 µM
AGGAAACAUGAGGAUCACCCAUGUGAGGAUAUACAAAAGAAAAGAAAAGAAAGAAGAAGUAGAAGGCACAAGAA [Thesh]	0.0262 µM	0.0295 µM
AAUAAACAUGAGGAUCACCCAUGUCAGGAUAUGCAUCUAACAUAAUAACAUAAAUACAGCAGAAGGGACUAAUA [JR_Exc001_Sub601]	0.0303 µM	0.0206 µM
AAAAUGUCAGGAUAUGCGAAGGCGUCUGAUAGACGAGGCUAGCAGAAGGGACAUGAGGAUCACCCAUGUGGAAA [Power strip 63% 2]	0.125 µM	0.128 µM
AAAAAGUGAGGAUAUACAUGAGGAUCACCCAUGUAAAAGGUCGCGGGAGCGGAGGACGGUAGAAGGCGCAAAAA [Excls3-VIIi]	0.0253 µM	0.0289 µM
GAAAAACAUGAGGAUCACCCAUGUAAGGAUAUGCUGAAAAACACGGAAAAAACGUGCAGCAGAAGGUACAAAAG [Mat - Exclusion 1 - Eli mod - D91]	0.0167 µM	0.131 µM
AAAAAGUGAGGAUAUACAUGAGGAUCACCCAUGUAAAAGGUCAGGGUGGCGGAGGACGGUAGAAGGCGCAAAAA [Excls3-IX]	0.0345 µM	0.0402 µM
GGAUGCGUAGGAUAUACAUGAGGAUCACCCAUGUGAGAGAAAAAAGUGAGAAAGAAAAGUAGAAGGACGUGUCG [salish99-ex3-90]	0.0349 µM	0.0856 µM
AUCGAUCGAGGAUAUACAUGAGGAUCACCCAUGUAAAGCAGAAGAAAGGCCUCAGGAUGUAGAAGGCGACGCAA [JR_Exc003_Sub404]	0.0171 µM	0.0419 µM
AAAAAGAGAGGAUAUACAUGAGGAUCACCCAUGUGACAUAAAAUAAAUAAAAUAAAGUGUAGAAGGCUCAAAAA [65%, Moding Exclusion3-cac2, 21]	0.0417 µM	0.104 µM
GAAAGUGGAGGAUAUACAUGAGGAUCACCCAUGUGUAAAAAUAAAAACACAAAAGAAAGUAGAAGGCCACAAAG [Mat - Exclusion 3 - Mayanna mod - D116]	0.0229 µM	0.0492 µM
GAGGCUGAAGGAUAUACAAGGGCCUCACCGCCAAGGCGGAAACAUGAGGAUCACCCAUGUAGAAGGUCAAUAAA [Usrisore]	0.14 µM	0.103 µM
CUCUUGUCAGGAUAUCUAAGAAAAGAAGAGAAAGAAAAGAAAGAGAAGGGACAUGAGGAUCACCCAUGUAAGAA [EteRNA is fun!]	0.0593 µM	0.0324 µM
AGAAUACAUGAGGAUCACCCAUGUGAGGAUAUCCAAAGAAAAAGAAAAGAAAAGAAAAGGAGAAGGCACAAAAG [EX 1 May 13]	0.0787 µM	0.0673 µM
